The test deals with CA09 N1 sNAp (stabilized recombinant N1 neuraminidase head of H1N1 A/California/07/2009) (Influenza A virus H1N1 A/California/07/2009). The experiment in a line: cryo-EM structure.

As usually defined, the stoichiometry N is a count of units in the complex or per binding partner.

Consider “CA09 N1 sNAp (stabilized recombinant N1 neuraminidase head of H1N1 A/California/07/2009) (enzyme)”, for which the stoichiometry N came out at 4.

(Values after PMC12316933.)
